From the supplement of paper PMC10567573

B1: VDR (parent)
chain: VTLELSQLSMLPHLADLVSYSIQK
B2: FBXO39 (parent)
chain: RVFKARIYTNRYETNEEDKTLQEI

Variants of: B1
Assay: protein stability index of a GFP-peptide fusion (GPS, HEK-293T) (PSI 1-6); higher = more stable
Conditions: c terminus: a fixed tail appended
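Also: lentivirally expressed fusions sorted by FACS into six bins by GFP to DsRed ratio, PSI derived from sequencing read proportions per bin multiplied by bin number.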

Protein stability index: each site, then its substitutions
S21: D 3.11, K 2.89, N 3.47, E 2.84, F 3.64, P 1.05, Y 2.45, R 2.13, V 3.87, Q 1.43, I 1.89
M10: W 3.71, R 3.32, S 1.96, F 1.99, L 2.62, K 1.69, P 2.64, A 2.73
S19: D 2.27, A 2.23, H 2.79, Y 2.42, P 2.63, C 2.33, N 3.84, M 3.08, I 2.76, T 3.23, R 3.25, V 4.3, K 1.68
D16: G 1.67, V 3.99, H 3, E 4.21, P 3.09, T 2.91, Y 2.31, K 4.49, F 3.5, W 2.26, C 3.86, M 3.71, N 3.07
Q7: M 3.99, P 2.45, I 2.06, V 2.68, L 3.66, R 2.33, D 2.45, T 3.45, S 2.99, H 3.22, G 1.33, K 2.59, C 2.21, E 3.06
Q23: G 2.84, P 1.68, T 2.74, L 3.08, N 2.07, F 4.15, W 1.56, S 2.05, E 3.09, K 3.23
L14: T 2.12, R 1.86, E 2.88, M 3.71, H 2.6, A 2.18, K 2.31, F 2.69, I 3.33, W 2.95, D 2.49, G 1.71, Q 2.22, N 1.61
L11: H 3.18, F 2.5, S 2.19, R 1.94, K 3.55, E 1.52, W 2.6, A 1.62, C 2.65, N 1.71, M 2.38, I 3.11
L17: Q 2.42, G 1.33, D 1.7, A 2.04, K 1.68, T 2.47, R 1.62, S 1.6, H 1.98, C 3.09
V18: M 2.99, Q 2.76, F 3.13, W 3.29, H 2.04, L 3.33, E 1.73, C 4.49, R 2.57, G 1.78, T 1.49, P 1.88, I 2.79
V1: R 3.03, Y 2.2, E 1.9, N 1.81, D 2.29, A 1.63, S 1.99, Q 2.66, G 2.5, W 2.08, M 2.18, T 3, K 1.86, H 2.44
T2: I 4.5, W 2.48, M 2.16, H 2.06, D 1.6, G 1.76, R 4.52, L 1.75, C 4.12, S 3.12, K 2.4, N 3.11, F 3.02, E 2.22
A15: K 2.64, E 1.85, S 2.73, N 2.99, L 3.63, F 2.81, V 3.02, H 4.28
L3: F 1.95, I 2.53, Y 2.81, H 1.6, W 4.09, R 1.53, G 2.67, S 1.5, E 1.84, D 2.09, N 1.5, M 3.15, Q 1.96, K 1.16
I22: W 1.98, K 1.72, G 2.47, E 1.92, D 2.23, V 4.61, R 2.12, P 1.55, H 2.34, M 3.49, Y 3.63, C 4.35, Q 2.74, A 1.56
K24: V 5.45, C 2.39, P 2.95, H 5.43, D 3.06, N 3.71, S 2.66, W 3.71, A 2.14, Q 3.06, E 3.5, G 2.79, Y 3.25
S6: N 2.58, H 3.94, Q 2.54, T 1.28, P 2.29, W 2.88, K 1.81, L 3.3, I 2.48, M 2.06, R 1.52, G 3.13, V 3.64, Y 2.27, D 2.16
H13: E 3.51, P 2.69, T 2.23, W 1.99, A 2.64, M 4.11, N 2.13, V 1.98, Q 1.8
P12: V 2.61, I 3.14, K 2.72, Y 3.69, D 3.28, T 3.29, Q 3.63, W 4.36, R 3.79, F 1.44, N 2.22, S 2.38
S9: W 3.43, A 2.74, V 2.74, C 2.37, N 3.47, Q 2.24, E 3.48, D 2.83, M 3.43, Y 2.63, F 2.67, H 3.83, L 2.79
L8: M 3.27, H 2.92, S 2.16, E 1.65, P 2.33, W 1.82, V 3.88, Y 2.47, A 2.74, G 1.62, C 2.43, N 2.35
Y20: E 2.97, I 3.08, W 2.91, N 1.81, G 2.73, P 2.3, Q 3.29, A 1.94, H 3.24, M 2.91, R 3.61, T 2.31, S 2.92, L 3.69, C 2.66
L5: W 2.81, E 1.71, D 2.1, M 4.44, K 1.85, C 2.54, I 3.82, H 2.33, V 2.65, P 1.86, T 2.04, S 1.92
E4: P 3.67, M 3.22, V 3.1, D 3.44, I 3.27, R 3.12, F 2.88, A 2.69, C 3.83, N 2.66

Variants of: B2
Assay: as above
Conditions: c terminus: a fixed tail appended

Protein stability index: each site, then its substitutions
R1: T 2.72, P 4.26, I 3.15
T14: F 2.52
K19: R 4, H 2.92, F 2.61
E16: V 1.92
N10: W 2.2, V 2.15, L 2.11
L21: R 2.97, I 2.62
T20: N 2.57, R 2.77, A 2.87, W 2.49
Y8: L 3.21
A5: T 2.1
I24: T 2.75, S 3.36
E17: K 2.24
E23: F 1.93
F3: L 3.05, K 4.32
K4: E 3.81, A 2.55, T 4.72
Q22: F 1.76, H 1.64, Y 2.6
D18: C 2.33, W 2.18, K 2.7, N 2.25
I7: A 3.14
E13: V 1.99, F 2.07
Y12: G 3.13
V2: K 3.36
R11: D 3.23
